Results on one molecule are retold here after patent CN106146655A (UNIV NANCHANG, dated 2016).

In the assay the target is T1, 6×His标签 (组氨酸标签), 人工抗原6×His-OVA (also: covalently coupled to ovalbumin (OVA), chemistry and site not given here).
T1 construct: also called 多组氨酸标签; hexa组氨酸标签
T1 peptide: HHHHHH
The assay is described as follows: indirect phage-ELISA of phage-displayed VHH clones after three rounds of panning on 6×His-OVA. On the technique in general: ELISA stands for enzyme-linked immunosorbent assay.

Where no end group is shown, it is not given here.

B1: 针对His标签的单域重链抗体 (针对组氨酸标签的纳米抗体) (VHH)
VHH: QVQLVESGGGLVQAGGSLRLSCAVSGFTFSANAMSWVRQAPGKGPEWVSSINRGGASAEYADSVKGRFTISRDDAKNTLYLQMNSLKPEDTALYYCARGNYRGSYFNGPRTYWGRGTQVTVSP
notes: From an alpaca (Lama pacos) immune library; also called 抗His标签单域重链抗体
For the molecule B1, the binding result is on record as “binds”.
